Reference: US20190300590A1 (PROTAGONIST THERAPEUTICS, published 2019)
Bridges are numbered along the chain shown (N, C = ends). [ ]: non-standard residue; d: D form. Phe(3,4-(OMe)2) = COc1ccc(C[C@H](N)C(=O)O)cc1OC; AEF = NCCOc1ccc(C[C@H](N)C(=O)O)cc1; NMeQ = CN[C@@H](CCC(N)=O)C(=O)O; αMeK = C[C@](N)(CCCCN)C(=O)O; Abu = CC[C@H](N)C(=O)O; AEA = NCCOCC(=O)O

B1: Ac-Cyclo-[[Abu]-QTWQC]-[Phe[4-(2-aminoethoxy)]]-[Phe(3,4-OMe2]-[α-MeLys]-[Lys(Ac)]-NG-NH2 (peptide)
peptide: Ac-[Abu]QTWQC[AEF][Phe(3,4-(OMe)2)][αMeK]K(Ac)NG-NH2
modifications: thioether 1-6
B2: Ac-C-CYWRVFG-[AEA]-[(D)Lys]-NH2 (peptide)
peptide: CXTWQCYWRVFGXK
modifications: Ac-; [AEA]; [(D)Lys]; -NH2
B3: Ac-CRTWQCYWRENGA-[(D)Lys]-NH2 (peptide)
peptide: Ac-CRTWQCYWRENGA[dK]-NH2
modifications: cysteine pairing not given here
B4: Ac-CRTWQCYWREYGA-[(D)Lys]-NH2 (peptide)
peptide: Ac-CRTWQCYWREYGA[dK]-NH2
modifications: cysteine pairing not given here
B5: Ac-C-CYWRVFG-[AEA]-[(D)Lys]-NH2 (peptide)
peptide: CXTWQCYWRVFGXK
modifications: Ac-; [AEA]; [(D)Lys]; -NH2
B6: Ac-CQTWQCYWRVFG-[AEA]-[(D)Lys]-NH2 (peptide)
peptide: Ac-CQTWQCYWRVFG[AEA][dK]-NH2
modifications: disulfide 1-6 (inferred)
B7: Ac-C-[N-MeArg]-TWQCYWRVFG-[AEA]-[(D)Lys]-NH2 (peptide)
peptide: CRTWQCYWRVFGXK
modifications: not fully specified; Ac-; [N-MeArg]; [AEA]; [(D)Lys]; -NH2
B8: Ac-C-[N-MeQln]-TWQCYWRVFG-[AEA]-[(D)Lys]-NH2 (peptide)
peptide: Ac-C[NMeQ]TWQCYWRVFG[AEA][dK]-NH2
modifications: disulfide 1-6 (inferred)
B9: Ac-CNTWQCYWRVFG-[AEA]-[(D)Lys]-NH2 (peptide)
peptide: Ac-CNTWQCYWRVFG[AEA][dK]-NH2
modifications: disulfide 1-6 (inferred)

The binders below were run against Rat IL-23R_huFC (rat) (assay: rat ELISA vs IL-23).
Binder B1 has an IC50 of 25 to 100 nM.

Each binder was assayed against T1, IL23R_huFC (human, UniProt Q5VWK5 24-353) (assay: human ELISA vs IL-23).
T1 sequence (looked up): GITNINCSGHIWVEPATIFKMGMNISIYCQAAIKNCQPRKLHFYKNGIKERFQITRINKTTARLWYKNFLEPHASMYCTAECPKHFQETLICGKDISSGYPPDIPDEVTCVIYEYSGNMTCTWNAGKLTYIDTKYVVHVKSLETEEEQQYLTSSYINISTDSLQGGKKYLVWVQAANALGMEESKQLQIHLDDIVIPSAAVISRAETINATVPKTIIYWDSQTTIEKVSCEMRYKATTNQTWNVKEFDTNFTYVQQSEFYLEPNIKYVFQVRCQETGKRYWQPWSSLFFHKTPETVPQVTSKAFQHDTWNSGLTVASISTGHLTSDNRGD
With B1 the IC50 was 10 to 25 nM.

What follows are binders tested against T2, Rat IL-23R_huFC (rat; human, UniProt F1LX96 39-369) (assay: rat IL-23R competitive ELISA).
T2 sequence: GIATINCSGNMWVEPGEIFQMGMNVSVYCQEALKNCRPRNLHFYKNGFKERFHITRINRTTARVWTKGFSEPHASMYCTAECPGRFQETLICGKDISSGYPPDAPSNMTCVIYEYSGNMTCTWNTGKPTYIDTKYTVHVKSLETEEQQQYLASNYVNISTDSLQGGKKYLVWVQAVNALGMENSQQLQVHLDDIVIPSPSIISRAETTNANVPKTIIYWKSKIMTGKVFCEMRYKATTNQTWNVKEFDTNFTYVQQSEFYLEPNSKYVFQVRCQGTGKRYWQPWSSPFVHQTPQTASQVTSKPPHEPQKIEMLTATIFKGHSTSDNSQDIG
With B2 the IC50 was 51 nM. With B3 the IC50 was 86 nM. B4 gave an IC50 of 80 nM. Binder B5 has an IC50 of 100 nM. Binder B6 has an IC50 of 62 nM. B7 gave an IC50 of 192 nM. For B8, the IC50 was 85 nM. Binder B9 has an IC50 of 79 nM.

These binders were tested against T3, IL-23R on human cells (IL-23R-expressing DB cells; human NK cells) (human, UniProt Q5VWK5 24-629) (assay: cell-based or functional assay).
T3 sequence (looked up): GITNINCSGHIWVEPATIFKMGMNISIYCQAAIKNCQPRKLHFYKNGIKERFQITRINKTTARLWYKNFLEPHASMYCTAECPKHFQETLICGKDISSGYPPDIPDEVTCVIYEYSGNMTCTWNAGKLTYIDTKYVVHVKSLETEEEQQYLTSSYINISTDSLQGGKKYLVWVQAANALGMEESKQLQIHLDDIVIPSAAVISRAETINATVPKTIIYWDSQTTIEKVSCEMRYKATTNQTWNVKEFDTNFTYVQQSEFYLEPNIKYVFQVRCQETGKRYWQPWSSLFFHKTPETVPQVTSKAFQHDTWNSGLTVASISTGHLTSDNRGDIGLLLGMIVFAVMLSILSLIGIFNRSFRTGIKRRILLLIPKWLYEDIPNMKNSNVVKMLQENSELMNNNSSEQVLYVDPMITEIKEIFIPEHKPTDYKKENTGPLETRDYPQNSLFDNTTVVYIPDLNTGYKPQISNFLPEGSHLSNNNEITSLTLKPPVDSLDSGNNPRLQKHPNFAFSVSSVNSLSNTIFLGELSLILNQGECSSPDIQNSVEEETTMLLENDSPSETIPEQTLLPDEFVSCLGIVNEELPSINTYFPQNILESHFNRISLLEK
With B1 the “NK cell assay IC50 (IFNγ)” value was less than 25 nM.

Biological target: T3, IL-23R on human cells …
Test: cell-based or functional assay
Remark: another data set of the same source
In the case of B1, the “pStat3 HTRF IC50” value is reported as less than 10 nM.
